The values that follow come from the supplement of paper PMC7877785.

± gives the uncertainty stated by the source.

The data set in a line: self-splicing fitness, log relative to wild type (ln ratio); higher = more splicing; Tetrahymena group I intron in knt gene, E. coli kanamycin selection, DiMSum; sequences stand for … in CUCUCU…GGAGGGAAAAGUUAUCAGGCAUGCACCUGGUAGCUAGUCUUUAAACCAAUAGAUUGCAUCGGUUUAAAAGGCAAGACCGUCAAAUUGCGGGAAAGGGGUCAACAGCCGUUCAGUACCAAGUCUCAGGGGAAACUUUGAGAUGGCCUUGCAAAGGGUAUGGUAAUAAGCUGACGGACAUGGUCCUAACCACGCAGCCAAGUCCUAAGUCAACAGAUCUUCUGUUGAUAUGGAUGCAGUUCACAGACUAAAUGUCGGUCGGGGAAGAUGUAUUCUUCUCAUAAGAUAUAGUCGGACCUCUCCUUAAUGGGAGCUAGCGGAUGAAGUGAUGCAACACUGGAGCCGCUGGGAACUAAUUUGUAUGCGAAAGUAUAUUGAUUAGUUUUGGAGUACUCGUGGUCG
The procedure, abridged: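 Fitness was computed with DiMSum as the error-weighted combination of replicate fold changes, kanamycin versus none, each normalised to wild type. The library randomised all eight intron nucleotides of the P1ex region, with the intron placed in the knt kanamycin-resistance gene on pET-22b(+) in E. coli BL21(DE3). Six replicate transformations were grown overnight at 37°C or 30°C on LB agar with or without 25 μg/mL kanamycin, plus 100 μg/mL carbenicillin, 50 μM IPTG and 0.2% rhamnose. Pooled colonies were amplicon-sequenced on an Illumina HiSeq 2500.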

With GCUAAGCAAUAUUACGUUGG, the “self-splicing fitness (ln)” value reads like this: (30 °C) -3.67 ± 0.15; (37 °C) -1.79 ± 0.12. As for GCUCAGCAAUAUUACGAAAA, the “self-splicing fitness (ln)” value was -0.758 ± 0.13 (30 °C) and -1.02 ± 0.18 (37 °C). Regarding GCUCAGCAAUAUUACGAAAC, the “self-splicing fitness (ln)” value is, setting by setting: (30 °C) -0.549 ± 0.14; (37 °C) -0.851 ± 0.17. The like results for GCUCAGCAAUAUUACGAAGC were, in that order, -2.75 ± 0.12 and -2.33 ± 0.15. GCUCAGCAAUAUUACGAAUU: the “self-splicing fitness (ln)” value was -1.04 ± 0.064 (30 °C) and 0.155 ± 0.087 (37 °C).

On to GCUCAGCAAUAUUACGACGC, for which the “self-splicing fitness (ln)” value is -0.319 ± 0.12 (30 °C) and -0.102 ± 0.19 (37 °C).

On to GCUCAGCAAUAUUACGAGCG, for which the “self-splicing fitness (ln)” value (30 °C) is -2.81 ± 0.16 and the “self-splicing fitness (ln)” value (37 °C) is -0.923 ± 0.11.

Consider GCUCAGCAAUAUUACGCAGC, for which the “self-splicing fitness (ln)” value was -2.98 ± 0.35 (30 °C) and -2.67 ± 0.44 (37 °C). The like results for GCUCAGCAAUAUUACGCAGG were, in that order, -1.52 ± 0.084 and -1.29 ± 0.098.

For the sequence GCUCAGCAAUAUUACGCAGU, the “self-splicing fitness (ln)” value (30 °C) is -2.41 ± 0.15 and the “self-splicing fitness (ln)” value (37 °C) was -1.13 ± 0.14. With GCUCAGCAAUAUUACGCCGA, the “self-splicing fitness (ln)” value is -2.43 ± 0.26 (30 °C) and -1.39 ± 0.34 (37 °C). Taken in the same sequence, the figures for GCUCAGCAAUAUUACGCUGG were -2.98 ± 0.16 and -2.27 ± 0.22.

Turning to GCUCAGCAAUAUUACGCUUG, the “self-splicing fitness (ln)” value (30 °C) is -2.04 ± 0.11 and the “self-splicing fitness (ln)” value (37 °C) worked out at 0.227 ± 0.1. Taken in the same sequence, the figures for GCUCAGCAAUAUUACGCUUU were -0.857 ± 0.077 and -0.887 ± 0.083.

As for GCUCAGCAAUAUUACGGAAA, the “self-splicing fitness (ln)” value by setting is: (30 °C) -1.62 ± 0.15; (37 °C) -0.337 ± 0.12.

Regarding GCUCAGCAAUAUUACGGACA, the “self-splicing fitness (ln)” value reads like this: (30 °C) -1.25 ± 0.14; (37 °C) -0.983 ± 0.13.

In the case of GCUCAGCAAUAUUACGGAGA, the “self-splicing fitness (ln)” value reads like this: (30 °C) -0.638 ± 0.095; (37 °C) 0.284 ± 0.14. As to GCUCAGCAAUAUUACGGUCU, the “self-splicing fitness (ln)” value runs as follows: (30 °C) -0.866 ± 0.087; (37 °C) -0.0674 ± 0.12. The like results for GCUCAGCAAUAUUACGGUGG were, in that order, -2.89 ± 0.17 and -1.41 ± 0.11. The like results for GCUCAGCAAUAUUACGGUUA were, in that order, -0.772 ± 0.12 and -0.237 ± 0.11. The like results for GCUCAGCAAUAUUACGGUUG were, in that order, -4.11 ± 0.27 and -2.28 ± 0.24. For GCUCAGCAAUAUUACGUCAC, the “self-splicing fitness (ln)” value (30 °C) is -3.37 ± 0.22 and the “self-splicing fitness (ln)” value (37 °C) is -2.06 ± 0.22. Taken in the same sequence, the figures for GCUCAGCAAUAUUACGUGAG were -4.29 ± 0.25 and -3.23 ± 0.2. Taken in the same sequence, the figures for GCUCAGCAAUAUUACGUGUA were -0.241 ± 0.058 and -0.00875 ± 0.067. In the case of GCUCAGCAAUAUUACGUGUC, the “self-splicing fitness (ln)” value by setting is: (30 °C) -1.55 ± 0.078; (37 °C) -0.662 ± 0.081.

For GCUCAGCAAUAUUACGUUUU, the “self-splicing fitness (ln)” value reads like this: (30 °C) -1.13 ± 0.056; (37 °C) 0.00509 ± 0.068. For GCUGAGCAAUAUUACGAAGU, the “self-splicing fitness (ln)” value (37 °C) was -1.72 ± 0.41. For the sequence GCUGAGCAAUAUUACGAUUC, the “self-splicing fitness (ln)” value is, setting by setting: (30 °C) -0.602 ± 0.1; (37 °C) -0.665 ± 0.11. Taken in the same sequence, the figures for GCUGAGCAAUAUUACGCGAG were -2.52 ± 0.16 and -1.83 ± 0.23.

For GCUGAGCAAUAUUACGCUAU, the “self-splicing fitness (ln)” value is -3.25 ± 0.19 (30 °C) and -3.59 ± 0.28 (37 °C).
